Experimental data: US20070086998A1 (GPC BIOTECH, published 2007)
Positions count from the first letter of the chain named.

B1: L243 (antibody, V domains shown)
VH: QIQLVQSGPELKKPGETVKISCKASGFTFTNYGMNWVKQAPGKGLKWMGWINTYTREPTYADDFKGRFAFSLETSASTAYLQINNLKNEDTAKYFCARDITAVVPTGFDYWGQGTTLTVSS
VL: DIQMTQSPASLSVSVGETVTITCRASENIYSNLAWYRQKQGKSPQLLVFAASNLADGVPSRFSGSGSGTQYSLKINSLQSEDFGDYYCQHFWTTPWAFGGGTNLEIK
B2: MS-GPC-8-6-47 (Fab) (Fab, V domains shown)
VH: QVQLKESGPALVKPTQTLTLTCTFSGFSLSTSGVGVGWIRQPPGKALEWLALIDWDDDKYYSTSLKTRLTISKDTSKNQVVLTMTNMDPVDTATYYCARSPRYRGAFDYWGQGTLVTVSS
VL: DIVLTQPPSVSGAPGQRVTISCSGSESNIGSNYVSWYQQLPGTAPKLLIYDNNQRPSGVPDRFSGSKSGTSASLAITGLQSEDEADYYCQSYDYDHYVFGGGTKLTVLG
B3: MS-GPC-8-6-2 (IgG form) (antibody, V domains shown)
VH: B2 VH with Q3E
VL: B2 VL with S35H
B4: MS-GPC-8-6 (IgG form) (antibody, V domains shown)
VH: B2 VH with Q3E
VL: B2 VL with E26S
B5: MS-GPC-8-6-2 (Fab) (Fab, V domains shown)
VH: B2 VH
VL: B2 VL with S35H
B6: MS-GPC-8-27-7 (Fab) (Fab, V domains shown)
VH: B2 VH
VL: B2 VL with S31N, S35G, Y94M, D95N, H96V, Y97H
B7: MS-GPC-8-10-57 (IgG4 form) (antibody, V domains shown)
VH: B2 VH with Q3E
VL: B2 VL with S31N, S35Q, Y94L, D95I, H96R, Y97H
B8: MS-GPC-8-27-41 (IgG4 form) (antibody, V domains shown)
VH: B2 VH with Q3E
VL: B2 VL with S31N, S35Q, Y94M, D95N, H96V, Y97H
B9: MS-GPC-8-6 (Fab) (Fab, V domains shown)
VH: B2 VH
VL: B2 VL with E26S
B10: MS-GPC-8-6-19 (Fab) (Fab, V domains shown)
VH: B2 VH
VL: B2 VL with S35A
B11: MS-GPC-8-6-13 (IgG4 form) (antibody, V domains shown)
VH: B2 VH with Q3E
VL: B2 VL with S31A, S35T
B12: MS-GPC-8-27-10 (Fab) (Fab, V domains shown)
VH: B2 VH
VL: B2 VL with S31A, S35N, Y94M, D95N, H96V, Y97H
B13: MS-GPC-8-10-57 (Fab) (Fab, V domains shown)
VH: B2 VH
VL: B2 VL with S31N, S35Q, Y94L, D95I, H96R, Y97H
B14: MS-GPC-8-17 (Fab) (Fab, V domains shown)
VH: B2 VH
VL: B2 VL with E26S, Y94F, D95S, H96V
B15: MS-GPC-8-6-27 (Fab) (Fab, V domains shown)
VH: B2 VH
VL: B2 VL with E26D, S31A, S35T
B16: MS-GPC-8-6-13 (Fab) (Fab, V domains shown)
VH: B2 VH
VL: B2 VL with S31A, S35T
B17: MS-GPC-1-Fab (Fab, V domains shown)
VH: B2 VH with S100Q, P101Y, R102G, Y103H, A106G, Y109H
VL: B2 VL with E26S, Y94F, D95N, H96E, Y97S
B18: MS-GPC-8-27-41 (Fab) (Fab, V domains shown)
VH: B2 VH
VL: B2 VL with S31N, S35Q, Y94M, D95N, H96V, Y97H
B19: MS-GPC-8-Fab (Fab, V domains shown)
VH: B2 VH
VL: B2 VL with E26S, Y94M, D95P, H96Q, Y97A
B20: MS-GPC-10-Fab (Fab, V domains shown)
VH: B2 VH with S100Q, P101L, R102H, A106G, Y109L
VL: B2 VL with E26S, Y94L, D95T, H96M, Y97G

What was measured:
[1] = molecular target: T1, human MHC class II DR protein (DRA*0101/DRB1*0401), purified (human, UniProt P01903 26-254; P01911 30-266, limits assumed); test: not stated (Z. A. Nagy, unpublished)
T1 construct: mature; Detergent-solubilised protein purified from PRIESS cell lysate on an LB3.1 column; also called HLA-DR protein
T1 MHC II alpha: not shown
T1 MHC II beta: not shown

[2] = molecular target: T2, chimeric DR-IE (human-mouse chimeric MHC class II molecule) (human; murine); test: cell-based or functional assay
[3] = molecular target: T3, HLA-DR on PRIESS cells (DRA*0101/DRB1*0401) (human, UniProt P01903 26-254; P01911 30-266); test: cell-based or functional assay
T3 MHC II alpha: not shown
T3 MHC II beta: not shown

[4] = molecular target: T3, HLA-DR on PRIESS cells …; test: cell-based or functional assay
HLA-DR on LG-2 cells [5] = molecular target: HLA-DR on LG-2 cells (human); test: cell-based or functional assay
HLA-DR on LG-2 cells [6] = molecular target: HLA-DR on LG-2 cells (human); test: cell-based or functional assay; remark: listed apart in the source
[7] = molecular target: T2, chimeric DR-IE (human-mouse chimeric …); test: cell-based or functional assay; remark: listed apart in the source
[8] = molecular target: T3, HLA-DR on PRIESS cells …; test: cell-based or functional assay

Row | Binder | IC50, IL-2 secretion of T-Hyb 1 cells stimulated by 0401-IE transgenic APC; Fab [2] | Maximum inhibition(%), IL-2 secretion of T-Hyb 1 cells; Fab [2] | EC50 of cell killing for bivalent agent; PRIESS; Fab cross-linked with anti-FLAG M2 [3] | other results
1 | B1 |  |  |  | Kd [1]: 10 nM
2 | B2 | 2.6 nM (Fab concentration/2) | 100% |  | 
3 | B3 |  |  |  | IC50, IL-2 secretion of T-Hyb 1 cells stimulated by 0401-IE transgenic APC; IgG [2]: 3.6 nM; Maximum inhibition(%), IL-2 secretion of T-Hyb 1 cells; IgG [2]: 100%
4 | B4 |  |  |  | IC50, IL-2 secretion of T-Hyb 1 cells stimulated by 0401-IE transgenic APC; IgG [2]: 6.7 nM; Maximum inhibition(%), IL-2 secretion of T-Hyb 1 cells; IgG [2]: 100%
5 | B5 | 4.7 nM (Fab concentration/2) | 100% | 8 nM | 
6 | B6 | 5.9 nM (Fab concentration/2) | 100% |  | 
7 | B7 |  |  |  | % Killing by mAb; PRIESS (DR 4,4); 50 nM, 4 h [4]: 93%; % Killing by mAb; LG-2 (DR 1,1); 50 nM, 4 h (HLA-DR on LG-2 cells [5]): 88%; IC50, IL-2 secretion of T-Hyb 1 cells stimulated by 0401-IE transgenic APC; IgG [2]: 0.31 nM; Maximum inhibition(%), IL-2 secretion of T-Hyb 1 cells; IgG [2]: 100%; EC50 of cell killing for bivalent agent; PRIESS; IgG4 [3]: 1.1 nM; EC50 of cell killing for bivalent agent; LG2; IgG4 (HLA-DR on LG-2 cells [6]): 1 nM; IC50 value for inhibition of T cell proliferation (lymph node cells of chimeric 0401-IE transgenic mice, ovalbumin) [7]: 11 nM
8 | B8 |  |  |  | % Killing by mAb; PRIESS (DR 4,4); 50 nM, 4 h [4]: 88%; % Killing by mAb; LG-2 (DR 1,1); 50 nM, 4 h (HLA-DR on LG-2 cells [5]): 87%; IC50, IL-2 secretion of T-Hyb 1 cells stimulated by 0401-IE transgenic APC; IgG [2]: 0.28 nM; Maximum inhibition(%), IL-2 secretion of T-Hyb 1 cells; IgG [2]: 100%; EC50 of cell killing for bivalent agent; PRIESS; IgG4 [3]: 1.1 nM; EC50 of cell killing for bivalent agent; LG2; IgG4 (HLA-DR on LG-2 cells [6]): 1.23 nM; IC50 value for inhibition of T cell proliferation (lymph node cells of chimeric 0401-IE transgenic mice, ovalbumin) [7]: 20 nM
9 | B9 | 20 nM (Fab concentration/2) | 100% |  | 
10 | B10 | 5.3 nM (Fab concentration/2) | 100% |  | 
11 | B11 |  |  |  | % Killing by mAb; PRIESS (DR 4,4); 50 nM, 4 h [4]: 74%; % Killing by mAb; LG-2 (DR 1,1); 50 nM, 4 h (HLA-DR on LG-2 cells [5]): 82%; IC50, IL-2 secretion of T-Hyb 1 cells stimulated by 0401-IE transgenic APC; IgG [2]: 0.42 nM; Maximum inhibition(%), IL-2 secretion of T-Hyb 1 cells; IgG [2]: 100%
12 | B12 | 7.3 nM (Fab concentration/2) | 100% |  | 
13 | B13 | 2.9 nM (Fab concentration/2) | 100% |  | EC50 of cell killing for bivalent agent; LG2; Fab cross-linked with anti-FLAG M2 (HLA-DR on LG-2 cells [6]): 7.2 nM
14 | B14 |  |  | 16 nM | 
15 | B15 | 3 nM (Fab concentration/2) | 100% |  | 
16 | B16 | 2.1 nM (Fab concentration/2) | 100% |  | 
17 | B17 |  |  | 54 nM | 
18 | B18 | 3.6 nM (Fab concentration/2) | 100% | 7.7 nM | EC50 of cell killing for bivalent agent; LG2; Fab cross-linked with anti-FLAG M2 (HLA-DR on LG-2 cells [6]): 7.2 nM
19 | B19 | 110 nM (Fab concentration/2) | 100% | 31 nM | maximum killing capacity against PRIESS cells, cross-linked bivalent fragment [8]: 84%
20 | B20 |  |  | 33 nM | 
